Reference: patent US20130344055A1, “ANTIMICROBIAL AGENTS” (priority 2010, published 2013)

B1: PK2-Cecropin A (A. aegyptii)-LysK: PK2, then Cecropin A (A. aegyptii), N-terminally fused to LysK (protein)
chain: MKRKKRKKRKKRKKRKKRKGGLKKLGKKLEGAGKRVFNAAEKALPVVAGAKALRKAKTQAEINKRLDAYAKGTVDSPYRVKKATSYDPSFGVMEAGAIDADGYYHAQCQDLITDYVLWLTDNKVRTWGNAKDQIKQSYGTGFKIHENKPSTVPKKGWIAVFTSGSYEQWGHIGIVYDGGNTSTFTILEQNWNGYANKKPTKRVDNYYGLTHFIEIPVKAGTTVKKETAKKSASKTPAPKKKATLKVSKNHINYTMDKRGKKPEGMVIHNDAGRSSGQQYENSLANAGYARYANGIAHYYGSEGYVWEAIDAKNQIAWHTGDGTGANSGNFRFAGIEVCQSMSASDAQFLKNEQAVFQFTAEKFKEWGLTPNRKTVRLHMEFVPTACPHRSMVLHTGFNPVTQGRPSQAIMNKLKDYFIKQIKNYMDKGTSSSTVVKDGKTSSASTPATRPVTGSWKKNQYGTWYKPENATFVNGNQPIVTRIGSPFLNAPVGGNLPAGATIVYDEVCIQAGHIWIGYNAYNGNRVYCPVRTCQGVPPNQIPGVAWGVFK
B2: P1y511: endolysin Ply511 (protein)
chain: MVKYTVENKIIAGLPKGKLKGANFVIAHETANSKSTIDNEVSYMTRNWKNAFVTHFVGGGGRVVQVANVNYVSWGAGQYANSYSYAQVELCRTSNATTFKKDYEVYCQLLVDLAKKAGIPITLDSGSKTSDKGIKSHKWVADKLGGTTHQDPYAYLSSWGISKAQFASDLAKVSGGGNTGTAPAKPSTPAPKPSTPSTNLDKLGLVDYMNAKKMDSSYSNRDKLAKQYGIANYSGTASQNTTLLSKIKGGAPKPSTPAPKPSTSTAKKIYFPPNKGNWSVYPTNKAPVKANAIGAINPTKFGGLTYTIQKDRGNGVYEIQTDQFGRVQVYGAPSTGAVIKK
modifications: Listeria monocytogenes Phage A511
notes: endolysin Ply511
B3: KZ144: Pseudomonas aeruginosa bacteriophage endolysin KZ144 (phage phiKZ) (protein)
chain: KVLRKGDRGDEVCQLQTLLNLCGYDVGKPDGIFGNNTFNQVVKFQKDNCLDSDGIVGKNTWAELFSKYSPPIPYKTIPMPTANKSRAAATPVMNAVENATGVRSQLLLTFASIESAFDYEIKAKTSSATGWFQFLTGTWKTMIENYGMKYGVLTDPTGALRKDPRISALMGAELIKENMNILRPVLKREPTDTDLYLAHFFGPGAARRFLTTGQNELAATHFPKEAQANPSIFYNKDGSPKTIQEVYNLMDGKVAAHRK
modifications: Pseudomonas aeruginosa phage KZ
B4: Cpl1-Pseudin1: Cpl1 fusion variant with one peptide stretch, Pseudin1 (protein)
chain: MVKKNDLFVDVSSHNGYDITGILEQMGTTNTIIKISESTTYLNPCLSAQVEQSNPIGFYHFARFGGDVAEAEREAQFFLDNVPMQVKYLVLDYEDDPSGDAQANTNACLRFMQMIADAGYKPIYYSYKPFTHDNVDYQQILAQFPNSLWIAGYGLNDGTANFEYFPSMDGIRWWQYSSNPFDKNIVLLDDEEDDKPKTAGTWKQDSKGWWFRRNNGSFPYNKWEKIGGVWYYFDSKGYCLTSEWLKDNEKWYYLKDNGAMATGWVLVGSEWYYMDDSGAMVTGWVKYKNNWYYMTNERGNMVSNEFIKSGKGWYFMNTNGELADNPSFTKEPDGLITVAGLNTLKKVFQGLHEAIKLINNHVQ
B5: Cpl1-Indolicidin: Cpl1 fusion variant with one peptide stretch, Indolicidin (protein)
chain: MVKKNDLFVDVSSHNGYDITGILEQMGTTNTIIKISESTTYLNPCLSAQVEQSNPIGFYHFARFGGDVAEAEREAQFFLDNVPMQVKYLVLDYEDDPSGDAQANTNACLRFMQMIADAGYKPIYYSYKPFTHDNVDYQQILAQFPNSLWIAGYGLNDGTANFEYFPSMDGIRWWQYSSNPFDKNIVLLDDEEDDKPKTAGTWKQDSKGWWFRRNNGSFPYNKWEKIGGVWYYFDSKGYCLTSEWLKDNEKWYYLKDNGAMATGWVLVGSEWYYMDDSGAMVTGWVKYKNNWYYMTNERGNMVSNEFIKSGKGWYFMNTNGELADNPSFTKEPDGLITVAILPWKWPWWPWRR
B6: KZ144-PK: KZ144 fusion variant with one peptide stretch, PK (protein)
chain: MKVLRKGDRGDEVCQLQTLLNLCGYDVGKPDGIFGNNTFNQVVKFQKDNCLDSDGIVGKNTWAELFSKYSPPIPYKTIPMPTANKSRAAATPVMNAVENATGVRSQLLLTFASIESAFDYEIKAKTSSATGWFQFLTGTWKTMIENYGMKYGVLTDPTGALRKDPRISALMGAELIKENMNILRPVLKREPTDTDLYLAHFFGPGAARRFLTTGQNELAATHFPKEAQANPSIFYNKDGSPKTIQEVYNLMDGKVAAHRKKRKKRKKRK
B7: Cpl1-Pseudin1-Indolicidin: Cpl1 with Pseudin1 C-terminal of the enzyme, followed by Indolicidin (protein)
chain: MVKKNDLFVDVSSHNGYDITGILEQMGTTNTIIKISESTTYLNPCLSAQVEQSNPIGFYHFARFGGDVAEAEREAQFFLDNVPMQVKYLVLDYEDDPSGDAQANTNACLRFMQMIADAGYKPIYYSYKPFTHDNVDYQQILAQFPNSLWIAGYGLNDGTANFEYFPSMDGIRWWQYSSNPFDKNIVLLDDEEDDKPKTAGTWKQDSKGWWFRRNNGSFPYNKWEKIGGVWYYFDSKGYCLTSEWLKDNEKWYYLKDNGAMATGWVLVGSEWYYMDDSGAMVTGWVKYKNNWYYMTNERGNMVSNEFIKSGKGWYFMNTNGELADNPSFTKEPDGLITVAGLNTLKKVFQGLHEAIKLINNHVQILPWKWPWWPWRR
B8: Cpl1: endolysin Cpl-1 (protein)
chain: MVKKNDLFVDVSSHNGYDITGILEQMGTTNTIIKISESTTYLNPCLSAQVEQSNPIGFYHFARFGGDVAEAEREAQFFLDNVPMQVKYLVLDYEDDPSGDAQANTNACLRFMQMIADAGYKPIYYSYKPFTHDNVDYQQILAQFPNSLWIAGYGLNDGTANFEYFPSMDGIRWWQYSSNPFDKNIVLLDDEEDDKPKTAGTWKQDSKGWWFRRNNGSFPYNKWEKIGGVWYYFDSKGYCLTSEWLKDNEKWYYLKDNGAMATGWVLVGSEWYYMDDSGAMVTGWVKYKNNWYYMTNERGNMVSNEFIKSGKGWYFMNTNGELADNPSFTKEPDGLITVA
modifications: Streptococcus pneumoniae Phage Cpl-1
B9: EL188-PK: EL188 fusion variant with one peptide stretch, PK (protein)
chain: MNFRTKNGYRDLQALVKELGLYTGQIDGVWGKGTSSSTETLLRGYAEVVGKNTGGIGLPTTSDASGYNVITALQRNLAFLGLYSLTVDGIWGNGTLSGDKAFEVYKERYRTPTYDIAWSGKVSPAFTAKVKDWCGVHVPNHRAPHWLMACMAFETGQTFSPSIKNAAGSEAYGLIQFMSPAANDLNVPLSVIRSMDQLTQLDLVFKYFEMWMKRGKRYTQLEDFYLTIFHPASVGKKADEVLFLQGSKAYLQNKGFDVDKDGKITLGEISSTLYTTYYKGLLPENRHVISYKRKKRKKRK
B10: EL188: Pseudomonas aeruginosa bacteriophage endolysin EL188 (phage EL) (protein)
chain: MNFRTKNGYRDLQALVKELGLYTGQIDGVWGKGTSSSTETLLRGYAEVVGKNTGGIGLPTTSDASGYNVITALQRNLAFLGLYSLTVDGIWGNGTLSGLDKAFEVYKERYRTPTYDIAWSGKVSPAFTAKVKDWCGVHVPNHRAPHWLMACMAFETGQTFSPSIKNAAGSEAYGLIQFMSPAANDLNVPLSVIRSMDQLTQLDLVFKYFEMWMKRGKRYTQLEDFYLTIFHPASVGKKADEVLFLQGSKAYLQNKGFDVDKDGKITLGEISSTLYTTYYKGLLPENRHVISY
modifications: Pseudomonas aeruginosa phage EL
B11: Cecropin A (A. aegyptii)-LysK: LysK fusion variant with one peptide stretch, Cecropin A (A. aegyptii) (protein)
chain: MGGLKKLGKKLEGAGKRVFNAAEKALPVVAGAKALRKAKTQAEINKRLDAYAKGTVDSPYRVKKATSYDPSFGVMEAGAIDADGYYHAQCQDLITDYVLWLTDNKVRTWGNAKDQIKQSYGTGFKIHENKPSTVPKKGWIAVFTSGSYEQWGHIGIVYDGGNTSTFTILEQNWNGYANKKPTKRVDNYYGLTHFIEIPVKAGTTVKKETAKKSASKTPAPKKKATLKVSKNHINYTMDKRGKKPEGMVIHNDAGRSSGQQYENSLANAGYARYANGIAHYYGSEGYVWEAIDAKNQIAWHTGDGTGANSGNFRFAGIEVCQSMSASDAQFLKNEQAVFQFTAEKFKEWGLTPNRKTVRLHMEFVPTACPHRSMVLHTGFNPVTQGRPSQAIMNKLKDYFIKQIKNYMDKGTSSSTVVKDGKTSSASTPATRPVTGSWKKNQYGTWYKPENATFVNGNQPIVTRIGSPFLNAPVGGNLPAGATIVYDEVCIQAGHIWIGYNAYNGNRVYCPVRTCQGVPPNQIPGVAWGVFK

Experiments:
Type in all cases: cell-based
[1] = test system: Staphylococcus bacteria; experiment: In vitro antibacterial activity of Lysostaphin and LysK fusion variants; details: LysK variants; with EDTA 0.5 mM; 10^6 cells/ml; 30 minutes at RT
[2] = test system: Listeria bacteria; experiment: In vitro antibacterial activity of Ply511 fusion variants; details: with EDTA 0.5 mM; 10^6 cells/ml; 30 minutes at RT
[3] = test system: Pseudomonas bacteria; experiment: In vitro antibacterial activity of KZ144 and EL188 fusion variants; details: with EDTA 0.5 mM; 10^6 cells/ml; 30 minutes at RT
Description: Exponential growing Gram-negative bacterial cells (OD600 nm=0.6) were 100-fold diluted to a final density of about 10^6 cells/ml in 5 mM HEPES pH 7.4 and incubated for 30 minutes at room temperature without shaking with the different modified OBPgpLYS variants (in Elution Buffer in an end concentration of 1500 nM). After incubation cell suspensions and as a control untreated bacterial cells without any added modified OBPgpLYS variant were diluted three times (respectively 10^5-10^4-10^3 cells/ml) in 1× concentrated PBS buffer and 100 μl of each dilution was plated out on LB-medium. […] All samples were replicated in threefold. Averages +/− standard deviations are represented.
The purification of the fusion proteins and the antimicrobial activity assay was performed as described in Example 1.

[4] = test system: Streptococcus bacteria; experiment: In vitro antibacterial activity of Cpl1 fusion variants; details: with EDTA 0.5 mM; 10^6 cells/ml; 30 minutes at RT

Row | Molecule | Average log reduction, Pseudomonas [3] | Average log reduction, Streptococcus [4] | other results
1 | B1 |  |  | Average log reduction, Staphylococcus [1]: +++ (+++: 4 or more logs)
2 | B2 |  |  | Average log reduction, Listeria [2]: + (+: 1 log)
3 | B3 | +/− (+/−: <1 log) |  | 
4 | B4 |  | ++ (++: 2-3 log) | 
5 | B5 |  | ++ (++: 2-3 log) | 
6 | B6 | + (+: 1 log) |  | 
7 | B7 |  | +++ (+++: 4 or more logs) | 
8 | B8 |  | + (+: 1 log) | 
9 | B9 | + (+: 1 log) |  | 
10 | B10 | +/− (+/−: <1 log) |  | 
11 | B11 |  |  | Average log reduction, Staphylococcus [1]: ++ (++: 2-3 log)
